Measurements: the supplement of paper PMC10567573
± gives the standard deviation.

Assay: protein stability index of a GFP-peptide fusion (GPS, HEK-293T) (PSI 1-6); higher = more stable
[1] = treatment: DMSO, c terminus: a fixed tail appended
[2] = treatment: MLN4924 1 uM, 8 h, c terminus: a fixed tail appended
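Further: 24-mer peptide tiles fused after GFP, lentivirally expressed, FACS-sorted into six equal bins by GFP/DsRed ratio, decoded by Illumina sequencing, PSI is the read-weighted mean bin number.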

Sequence | protein stability index [1] | protein stability index [2] | protein stability index (treatment: DMSO, c terminus: native) | protein stability index (treatment: MLN4924 1 uM, 8 h, c terminus: native)
IRQVLQGLDYLHSKCKIIHTDIKP [SRPK2] | 2.35 ± 0.44 | 2.22 ± 0.23 | – | –
IRVMVHGRNHTPFLGHHSFSVRPG [SCNN1D] | 2.55 ± 0.24 | 2.85 ± 0.88 | – | –
ISDFGRQQLLPPFPSLHQSLPQNQ [EHMT1] | 3.45 ± 0.14 | 3.28 ± 0.23 | – | –
ISEAQLKDRETSKVIYDFIEKTGG [WASL] | 3.42 ± 0.13 | 3.67 ± 0.15 | – | –
ISIVIFCLETLPEFRDDRDLVMAL [KCNA4] | 3.04 ± 0.81 | 2.84 ± 0.68 | – | –
ISLAKGPPGPKGDQGDEGKEGRPG [SCARA5] | 5.24 ± 0.26 | 5.485 ± 0.034 | – | –
ISNIDTTIEGTSDDLTVVDAASLR [MFF] | 5.09 ± 0.27 | 4.82 ± 0.56 | – | –
ISQEEFARQLQLSDPQTVAGAFGY [LPCAT4] | 3.41 ± 0.43 | 3.09 ± 0.41 | – | –
ITQSWQVSVRVQPRGRAHLLPNPY [C22orf15] | 2.59 ± 0.83 | 3.36 ± 0.85 | – | –
ITVTQSHLVIQNLFEGMIWFLVPI [CDS1] | 3.25 ± 0.45 | 3.24 ± 0.34 | – | –
IVVHCSAGIGRTGTFCSLDICLAQ [PTPN9] | 3.85 ± 1 | 3.45 ± 0.19 | – | –
IVWNKKGKKVSNQRFEVIEFDDGS [PTPRD] | 3.31 ± 0.18 | 3.15 ± 0.062 | – | –
IYRKREEKRNAGNAVRSAMKSEEQ [KMT5A] | 4.47 ± 0.17 | 4.39 ± 0.25 | – | –
KACNKAVAGEFSEPVTLETPAFMF [FSD1] | 2.84 ± 0.18 | 2.98 ± 0.33 | – | –
KAQLPRRESERRNHSLARHADILA [FBXO28] | 3.85 ± 0.11 | 3.96 ± 0.14 | – | –
KARKTYERLVAQFPSSGRFWKLYI [CSTF3] | 2.57 ± 0.39 | 2.44 ± 0.35 | – | –
KASGKNKHFKVQLVDNVYCIGQRR [NCK2] | 3.06 ± 0.23 | 3.2 ± 0.16 | – | –
KEAVQNERDRISTRRSSYEDSSLP [HNF4A] | 5.07 ± 0.31 | 5.14 ± 0.25 | – | –
KEQEETIQRIDENVLGAQLDVEAA [STX5] | 5.52 ± 0.22 | 5.4 ± 0.34 | – | –
KFLASHFPNRTDQQCQYRWLRVLN [MYBL2] | 2.19 ± 0.46 | 2.2 ± 0.29 | – | –
KFSPDGKYVVSGFDVDHGICIMDA [WDR88] | 2.69 ± 0.21 | 3.13 ± 0.49 | – | –
KGEYEVAEGIGSTVFRAILDYYKT [BTBD10] | 2.43 ± 0.4 | 2.35 ± 0.41 | – | –

Sequence | protein stability index [1] | protein stability index [2] | protein stability index (treatment: DMSO, c terminus: native) | protein stability index (treatment: MLN4924 1 uM, 8 h, c terminus: native)
KGGISETRIEKRIVITGDADIDHD [EPB41L3] | 5.31 ± 0.2 | 5.16 ± 0.51 | – | –
KGSSELGFPRVAPEDEVIVNQYVI [RNF208] | 2.8 ± 0.44 | 2.64 ± 0.36 | – | –
KHSNSPPLVTPPQSPVSPQPPAIT [SMTNL2] | 4.82 ± 0.15 | 4.92 ± 0.15 | – | –
KISGGPRISYPLLHEWALREGEE [MAGEA6] | – | – | 2.68 ± 0.52 | 3.02 ± 0.65
KKAEKKLEENPYDLDAWSILIREA [CSTF3] | 3.19 ± 0.36 | 3.26 ± 0.41 | – | –
KKDKCGRTPLHYAAANCHFHCIET [ANKRD44] | 2.5 ± 0.096 | 2.63 ± 0.29 | – | –
KKDTLTEEETQFYISETVLAIDAI [STK38L] | 3.85 ± 0.3 | 3.97 ± 0.15 | – | –
KKFLTLGSKFRYSGRTQAQTRRAS [EPB41L3] | 3.27 ± 0.61 | 3.49 ± 0.41 | – | –
KLATQHKQLISQTKKKQWCYNCEE [ZMYND11] | 3.48 ± 0.4 | 3.8 ± 0.23 | – | –
KLFCIPVHGIRSVGTAAVNMCLVA [IMPA1] | 2.4 ± 0.8 | 2.26 ± 0.85 | – | –
KLFDDCTQQFKAEKLKEKLKMKER [PPP2R5C] | 3.43 ± 0.14 | 3.71 ± 0.15 | – | –
KLHEIFRGLHEDLQGVPERLLGTA [VTI1B] | 2.48 ± 0.3 | 2.72 ± 0.74 | – | –
KLLHIYYQNSIDDRLLVERIFAQY [PDS5B] | 2.68 ± 0.63 | 3.39 ± 0.59 | – | –
KLLNRCCHLFSTYVASHKIEKEEQ [ACBD3] | 2.21 ± 0.1 | 2.23 ± 0.28 | – | –
KLLQGEEERLKLSPSPSSRVTVSR [LMNB1] | 4.13 ± 0.23 | 4.13 ± 0.3 | – | –
KMEIYQKENKDVIQKNKLKLTREQ [MNAT1] | 3.89 ± 0.41 | 4.16 ± 0.34 | – | –
KMELGIDLLAYGAKAELPKYKSFN [MYOZ1] | 2.59 ± 0.23 | 2.77 ± 0.24 | – | –
KMFLRTREPALDGGFQMHYEKTPF [EID1] | 2.83 ± 0.25 | 3.05 ± 0.4 | – | –
KNELERDSKIVVPPLPGKALKRQL [SNX12] | 4.5 ± 0.26 | 4.56 ± 0.2 | – | –
KNEVGGLIKALKIFQEKHVNLLHI [TPH1] | 2.02 ± 0.43 | 2.12 ± 0.011 | – | –
KNIVIADFVMSLTFPFKILGDSGL [P2RY14] | 3.04 ± 0.65 | 2.99 ± 0.38 | – | –
KNLYTNEYVAIKLEPMKSRAPQLH [CSNK1G3] | 2.55 ± 0.28 | 2.5 ± 0.13 | – | –

Sequence | protein stability index [1] | protein stability index [2] | protein stability index (treatment: DMSO, c terminus: native) | protein stability index (treatment: MLN4924 1 uM, 8 h, c terminus: native)
KPGNNEGSGAPSPLSKSSPATTVT [SNAP91] | 5.21 ± 0.11 | 5.1 ± 0.13 | – | –
KPGPITLTVAKCWDPSPRGCFTLP [DVL3] | 2.41 ± 0.32 | 2.59 ± 0.11 | – | –
KPLDLSDSTLSYTETEATNSLITA [SMAD6] | 4.82 ± 0.2 | 4.92 ± 0.059 | – | –
KQPPLSTVPADGYILELDDGNGGQ [TRIM9] | 5.07 ± 0.12 | 5.07 ± 0.2 | – | –
KQQRNEVSFVIHNLPIIAKMAAVS [SEPHS2] | 2.51 ± 0.61 | 2.35 ± 0.36 | – | –
KRPAWGSRRFEAVGWWALLALVTL [POMT2] | 2.64 ± 0.71 | 2.29 ± 0.24 | – | –
KSNVLKLKTADWRVFLFQAPSKEE [PSD2] | 2.33 ± 0.077 | 2.44 ± 0.28 | – | –
KSSLIWSYPAGSLTFPVRPFFYTG [TRIM43] | 2.19 ± 0.26 | 2.08 ± 0.18 | – | –
KWDAENAIQQMGGQWLGGRQIRTN [TIA1] | 3.51 ± 0.28 | 3.56 ± 0.3 | – | –
KYENELALRQSVEADINGLRRVLD [KRT13] | 3.57 ± 0.17 | 3.65 ± 0.29 | – | –
KYLVEHKADLEVSNRHGHTCLMIS [FEM1C] | 2.53 ± 0.12 | 2.67 ± 0.23 | – | –
LAARRQWRDECLMRLAKLKSQVQP [CRYL1] | 2.35 ± 0.36 | 2.52 ± 0.79 | – | –
LALRQGVEADINGLRRVLDELTLA [KRT15] | 2.51 ± 0.26 | 2.65 ± 0.4 | – | –
LAPIHKLEEALYEYQPLQIETYGP [MNAT1] | 2.41 ± 0.46 | 2.71 ± 0.49 | – | –
LASSLGNLNAATDDPENKKTSSSS [CDC14A] | 5.43 ± 0.15 | 5.53 ± 0.15 | – | –
LCLDLAPSETGNTFVSGGCDKKAM [GNB5] | 3.96 ± 0.15 | 4.02 ± 0.17 | – | –
LDELLGRGMATKLLARPGTGEHRE [FBF1] | 3.75 ± 0.17 | 4.09 ± 0.29 | – | –
LDPRYKRLPFLSAFERQQVENRVV [ZBED1] | 3.36 ± 0.091 | 3.47 ± 0.13 | – | –
LDSCKQLTLAQGAGEEDPSGMVTI [SMG5] | 4.46 ± 0.16 | 4.49 ± 0.4 | – | –
LDVTVQSFGWSDRAKVKTDDIARI [FAM98B] | 2.98 ± 0.28 | 2.89 ± 0.36 | – | –
LEDKLRLLAQARDEAQGACLQQKQ [LRRC45] | 4.49 ± 0.33 | 4.19 ± 0.22 | – | –
